Reference: the supplement of paper PMC10724198
± gives the standard deviation of the averaged measurements.

Assays:
Saccharomyces cerevisiae [1] = experiment: protein stability index of tFT-peptide fusion (C-terminal peptide) (PSI (0-1 scale)); higher = more stable (slower turnover)
Description: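 MPS profiling in S. cerevisiae of the tFT-X12 degron library: putative degron peptides plus stable controls, 12 aa, fused to the C-terminus of a sfGFP-mCherry timer. Cells are FACS-sorted into 8 mCherry/sfGFP bins and deep-sequenced. PSI runs from 0 (unstable) to 1 (stable). Backgrounds are wild type, das1Δ and doa10Δ at 30 °C, and wild type, das1Δ, cdc34-1 and cdc53-1 at 37 °C; 2-3 technical replicates each.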

Saccharomyces cerevisiae [2] = experiment: as above; details: genetic background: wild type; temperature: 30 C
[3] = genetic background: cdc34-1, temperature: 37 C
[4] = genetic background: cdc53-1, temperature: 37 C
[5] = genetic background: das1 deletion, temperature: 30 C
[6] = genetic background: das1 deletion, temperature: 37 C
[7] = genetic background: doa10 deletion, temperature: 30 C
[8] = genetic background: wild type, temperature: 30 C
[9] = genetic background: wild type, temperature: 37 C
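Note: PSI is a weighted mean of sequencing reads over stability bins, variants kept only with over 10 reads, mCherry proximal and sfGFP distal, peptide attached via GGGS linker.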

Sequence	protein stability index (Saccharomyces cerevisiae [1]; [3])	protein stability index (Saccharomyces cerevisiae [1]; [4])	protein stability index (Saccharomyces cerevisiae [1]; [5])	protein stability index (Saccharomyces cerevisiae [1]; [6])	protein stability index (Saccharomyces cerevisiae [1]; [7])	protein stability index (Saccharomyces cerevisiae [1]; [8])	protein stability index (Saccharomyces cerevisiae [1]; [9])	protein stability index (Saccharomyces cerevisiae [2])
DLQTVGLTRFIV	0.62 ± 0.031	0.7362 ± 0.0061	0.621 ± 0.022	0.714 ± 0.011	0.149 ± 0.015	0.193 ± 0.0044	0.353 ± 0.031	0.236 ± 0.071
DLRRYRTLIPCK	0.38 ± 0.014	0.425 ± 0.023	0.288 ± 0.034	0.4805 ± 0.0034	0.2277 ± 0.00047	0.275 ± 0.048	0.481 ± 0.038	0.447 ± 0.034
DPKQVRIQSSWL	0.699 ± 0.016	0.721 ± 0.046	0.644 ± 0.042	0.723 ± 0.013	0.6273 ± 0.0026	0.663 ± 0.018	0.6863 ± 0.0034	0.7428 ± 0.0039
DVLLVVVLGRFL	0.403 ± 0.058	0.563 ± 0.063	0.344 ± 0.03	0.5481 ± 0.0036	0.322 ± 0.043	0.312 ± 0.027	0.535 ± 0.0089	0.44 ± 0.066
DVPLFLPLPVSV	0.357 ± 0.035	0.357 ± 0.01	0.278 ± 0.032	0.452 ± 0.015	0.243 ± 0.0078	0.297 ± 0.021	0.3903 ± 0.0012	0.392 ± 0.0097
ELDVRPMVFLVA	0.4192 ± 0.0018	0.4521 ± 0.0023	0.346 ± 0.038	0.4943 ± 0.0028	0.295 ± 0.0069	0.337 ± 0.027	0.457 ± 0.011	0.422 ± 0.007
ESRDRRVGIANW	0.69 ± 0.036	0.743 ± 0.005	0.647 ± 0.0092	0.77 ± 0.0086	0.648 ± 0.014	0.647 ± 0.011	0.713 ± 0.014	0.7252 ± 0.0026
FACLTPFCLCLT	0.527 ± 0.016	0.564 ± 0.015	0.422 ± 0.015	0.5742 ± 0.0044	0.325 ± 0.005	0.349 ± 0.013	0.51106 ± 0.0004	0.431 ± 0.025
FALFCFVIFMSR	0.22 ± 0.05	0.373 ± 0.1	0.245 ± 0.081	0.398 ± 0.034	0.277 ± 0.028	0.227 ± 0.068	0.381 ± 0.063	0.363 ± 0.06
FAVTRVHLACWG	0.453 ± 0.049	0.464 ± 0.0047	0.368 ± 0.033	0.493 ± 0.0079	0.3297 ± 0.0031	0.369 ± 0.03	0.466 ± 0.022	0.4649 ± 0.0013
FCCFFVHMSFFL	0.26 ± 0.0087	0.424 ± 0.024	0.298 ± 0.026	0.45 ± 0.0054	0.2646 ± 0.00099	0.282 ± 0.012	0.427 ± 0.025	0.483 ± 0.12
FCFLLLVSFFFV	0.234 ± 0.0069	0.407 ± 0.21	0.252 ± 0.029	0.388 ± 0.0052	0.211 ± 0.011	0.219 ± 0.034	0.33 ± 0.014	0.31 ± 0.028
FCICRFLFIFLG	0.44 ± 0.018	0.463 ± 0.012	0.358 ± 0.033	0.4917 ± 0.0036	0.3325 ± 0.0029	0.294 ± 0.029	0.411 ± 0.0063	0.336 ± 0.049
FCIFAMQICTSA	0.126 ± 0.013	0.173 ± 0.0037	0.112 ± 0.033	0.221 ± 0.0074	0.084 ± 0.015	0.108 ± 0.01	0.205 ± 0.015	0.18 ± 0.017
FCSPFFFFLFRL	0.283 ± 0.072	0.241 ± 0.032	0.357 ± 0.028	0.4269 ± 0.003	0.469 ± 0.0056	0.315 ± 0.031	0.361 ± 0.03	0.4182 ± 0.00048
FFFLPLFLVLSL	0.239 ± 0.01	0.158 ± 0.034	0.29 ± 0.025	0.378 ± 0.0094	0.486 ± 0.03	0.29 ± 0.03	0.329 ± 0.0071	0.363 ± 0.0047
FFGFYLKFVWCG	0.431 ± 0.062	0.4683 ± 0.0021	0.391 ± 0.024	0.516 ± 0.0079	0.146 ± 0.015	0.152 ± 0.019	0.258 ± 0.025	0.21 ± 0.019

Sequence	protein stability index (Saccharomyces cerevisiae [1]; [3])	protein stability index (Saccharomyces cerevisiae [1]; [4])	protein stability index (Saccharomyces cerevisiae [1]; [5])	protein stability index (Saccharomyces cerevisiae [1]; [6])	protein stability index (Saccharomyces cerevisiae [1]; [7])	protein stability index (Saccharomyces cerevisiae [1]; [8])	protein stability index (Saccharomyces cerevisiae [1]; [9])	protein stability index (Saccharomyces cerevisiae [2])
FFPSFGLFLCPV	0.431 ± 0.01	0.471 ± 0.0067	0.366 ± 0.036	0.5001 ± 0.0015	0.381 ± 0.013	0.357 ± 0.031	0.4685 ± 0.0018	0.409 ± 0.027
FFSRIIAILVLM	0.37 ± 0.071	0.453 ± 0.014	0.337 ± 0.024	0.515 ± 0.016	0.135 ± 0.011	0.144 ± 0.0086	0.192 ± 0.035	0.23 ± 0.031
FFVEKRVFFGII	0.604 ± 0.017	0.733 ± 0.015	0.593 ± 0.026	0.738 ± 0.029	0.197 ± 0.013	0.242 ± 0.015	0.408 ± 0.018	0.369 ± 0.009
FFVMVFTVEVFV	0.0407 ± 0.015	0.0863 ± 0.019	0.0929 ± 0.015	0.167 ± 0.01	0.0639 ± 0.011	0.0875 ± 0.015	0.132 ± 0.0075	0.194 ± 0.02
FFVWLGWGMFYG	0.547 ± 0.034	0.575 ± 0.015	0.425 ± 0.025	0.561 ± 0.0085	0.408 ± 0.0042	0.437 ± 0.013	0.6044 ± 0.0019	0.528 ± 0.054
FGALVVCFLTRC	0.426 ± 0.039	0.511 ± 0.056	0.342 ± 0.027	0.519 ± 0.007	0.289 ± 0.02	0.302 ± 0.04	0.481 ± 0.027	0.374 ± 0.026
FGGFYGRRVLII	0.62024 ± 0.00039	0.682 ± 0.0097	0.544 ± 0.023	0.6748 ± 0.0054	0.182 ± 0.0081	0.209 ± 0.0024	0.437 ± 0.0092	0.327 ± 0.04
FGGYLRAGVFLT	0.643 ± 0.032	0.6969 ± 0.0015	0.645 ± 0.027	0.721 ± 0.0034	0.388 ± 0.039	0.387 ± 0.043	0.586 ± 0.016	0.473 ± 0.11
FGPVLLVSFLFS	0.273 ± 0.024	0.386 ± 0.033	0.242 ± 0.031	0.422 ± 0.027	0.19 ± 0.016	0.235 ± 0.054	0.4008 ± 0.0017	0.35 ± 0.014
FGVRRSFVVFVV	0.3827 ± 0.00079	0.456 ± 0.011	0.337 ± 0.033	0.556 ± 0.0058	0.0834 ± 0.011	0.0934 ± 0.015	0.107 ± 0.014	0.191 ± 0.023
FHLFIRRSAVIF	0.493 ± 0.023	0.576 ± 0.0062	0.455 ± 0.017	0.555 ± 0.023	0.3488 ± 0.0019	0.351 ± 0.033	0.458 ± 0.0063	0.439 ± 0.025
FILFSEMFASSV	0.132 ± 0.021	0.175 ± 0.0083	0.265 ± 0.026	0.149 ± 0.02	0.28 ± 0.015	0.255 ± 0.028	0.137 ± 0.021	0.26 ± 0.0085
FLCIFFFFLISF	0.25 ± 0.012	0.194 ± 0.0028	0.261 ± 0.027	0.32 ± 0.004	0.346 ± 0.023	0.235 ± 0.035	0.297 ± 0.02	0.27 ± 0.011
FLCLLSLFFLDF	0.532 ± 0.044	0.572 ± 0.024	0.461 ± 0.03	0.626 ± 0.036	0.462 ± 0.034	0.437 ± 0.011	0.575 ± 0.015	0.478 ± 0.052
FLFCACIRVFSY	0.0501 ± 0.0013	0.17 ± 0.019	0.144 ± 0.025	0.228 ± 0.0087	0.125 ± 0.0033	0.133 ± 0.014	0.195 ± 0.02	0.193 ± 0.0046
FLFSSLFCFLFL	0.461 ± 0.035	0.428 ± 0.0099	0.474 ± 0.021	0.565 ± 0.029	0.571 ± 0.018	0.46 ± 0.018	0.527 ± 0.0061	0.433 ± 0.01
